Biological target: T1, mouse Unc5B (mouse, UniProt Q8K1S3 27-945)
T1 construct: whole, on cells; Endogenous protein; also called Uncoordinated 5B
Experiment: immunoprecipitation from mouse brain endothelial Bend.3 cells with the named antibody, western blot of the precipitate for Unc5B and Claudin5

T1 sequence (Q8K1S3 27-945): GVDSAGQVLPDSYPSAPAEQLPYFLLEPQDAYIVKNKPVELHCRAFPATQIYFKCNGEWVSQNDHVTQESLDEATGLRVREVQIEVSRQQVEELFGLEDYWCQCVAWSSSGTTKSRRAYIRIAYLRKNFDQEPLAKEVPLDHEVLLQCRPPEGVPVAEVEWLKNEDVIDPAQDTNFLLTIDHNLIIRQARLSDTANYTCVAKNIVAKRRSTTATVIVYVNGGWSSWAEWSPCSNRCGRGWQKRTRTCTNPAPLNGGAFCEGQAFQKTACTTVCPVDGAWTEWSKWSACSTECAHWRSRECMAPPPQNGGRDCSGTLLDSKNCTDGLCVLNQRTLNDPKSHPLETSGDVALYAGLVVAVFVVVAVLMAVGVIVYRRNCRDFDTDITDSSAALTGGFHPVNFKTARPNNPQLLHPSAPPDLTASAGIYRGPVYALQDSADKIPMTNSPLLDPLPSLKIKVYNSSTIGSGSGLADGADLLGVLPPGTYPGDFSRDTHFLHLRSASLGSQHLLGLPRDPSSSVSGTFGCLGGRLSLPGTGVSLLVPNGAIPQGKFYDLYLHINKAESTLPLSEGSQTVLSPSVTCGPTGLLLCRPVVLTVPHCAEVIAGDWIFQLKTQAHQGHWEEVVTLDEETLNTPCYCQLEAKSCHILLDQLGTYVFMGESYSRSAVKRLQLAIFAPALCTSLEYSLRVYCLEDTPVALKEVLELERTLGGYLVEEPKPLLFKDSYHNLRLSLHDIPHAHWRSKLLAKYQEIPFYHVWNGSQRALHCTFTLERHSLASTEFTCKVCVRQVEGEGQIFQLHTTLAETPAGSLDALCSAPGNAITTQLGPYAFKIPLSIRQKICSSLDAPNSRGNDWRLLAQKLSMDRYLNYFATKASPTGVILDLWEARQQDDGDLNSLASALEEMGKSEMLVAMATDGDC

B1: anti-Unc5B antibody 1103 (antibody, V domains shown)
VH: EVQLVESGGGLVQPGGSLRLSCAASGFNISYYSIHWVRQAPGKGLEWVASIYSSSGYTSYADSVKGRFTISADTSKNTAYLQMNSLRAEDTAVYYCARGYGLDYWGQGTLVTVSS
VL: DIQMTQSPSSLSASVGDRVTITCRASQSVSSAVAWYQQKPGKAPKLLIYSASSLYSGVPSRFSGSRSGTDFTLTISSLQPEDFATYYCQQHYSYPITFGQGTKVEIKR
notes: also called anti-Unc5B-3
binding result: binds
